Assay: In vivo metabolite profiling, plasma and tissues at 14 days
Design: species or system male Sprague-Dawley rats
Settings: rat, iv, 5 mg/kg
Experimental: The metabolite profiling in the biological samples from rats dosed with [^14C]-peginesatide was performed by high-performance liquid chromatography (HPLC). The radiolabeled materials in the samples of plasma and aqueous homoge-nates of tissues and feces were extracted with five volumes of methanol containing 0.1% of trifluoroacetic acid (TFA), mixed and centrifuged at 1500g at 4°C for l0 min to obtain supernatant. A portion of the supernatant was counted to estimate the extraction recovery of [^14C]-peginesatide and its related compounds in the biological samples. The rest of the supernatant was evaporated to dryness under a nitrogen gas stream. The residue was re-dissolved in a small volume of equal parts mobile phase [MP(A)] and B [MP(B)] for chromatographic analysis. The HPLC system (Simadzu, Kyoto, Japan) consisted of a LC-lOADvp pump, a CTO-lOACvp column oven, an SPD-lOAvp UV detector, and an SCL-lOAvp system controller. […] A mixture of 0.1% TFA aqueous solution and 0.1% TFA in methanol solution were used for MP(A) and MP(B), respectively. The flow rate was 0.5mL/min, and the peaks were monitored by a UV absorption detector at 215 run. The time for the gradient elution was as follows: the concentration of MP(B) was increased from 50 to 80% and from 80 to 83% over a period of 2-10min and 10-20min, respectively. […] The effluentwas collected into 0.5mL size fractions, followed by counting of the radioactivity (LSC). Under these conditions unchanged peginesatide and mono-PEG eluted at approximately 22 and 10 min, respectively.
A single dose of [^14C]-peginesatide at 5 mg·kg^−1 was administered to male Sprague-Dawley rats (n = 9) by IV injection. At 14 days after dosing, animals were euthanized and samples of plasma, liver, spleen, kidneys, testes, and bone marrow were collected. Plasma and tissue extract samples were analyzed for levels of total radioactivity, peginesatide, and potential metabolites using LSC. Tissue homogenates (prepared in saline at a concentration of 20% [w/v] for the liver, kidneys and testes and 10% [w/v] for the spleen and bone marrow) were analyzed for radioactivity by LSC following combustion. The concentration of radioactivity in the blood, plasma, and tissues was calculated and expressed as ug equiv·g^-1 or mL based on the LSC counts and the specific activity of the dosing solution.

Peginesatide
Day 14 concentration, Bone marrow: 3.22 μg equiv·g^−1 or mL | Day 14 concentration, Liver: 5.63 μg equiv·g^−1 or mL | Day 14 concentration, Plasma: 1.94 μg equiv·g^−1 or mL | Day 14 concentration, Spleen: 14.3 μg equiv·g^−1 or mL | Day 14 concentration, Testes: 2.68 μg equiv·g^−1 or mL | percent radioactivity, Bone marrow, Day 14: 58.2% | percent radioactivity, Kidneys, Day 14: 54.1% | percent radioactivity, Liver, Day 14: 63.2% | percent radioactivity, Spleen, Day 14: 61.2% | percent radioactivity, Testes, Day 14: 66.0% | share of total tissue radioactivity across liver, spleen, kidney, testes and bone marrow: 54-66%
